From US20160333095A1 (published 2016)

T1: cynomolgus CD3 (UniProt Q95LI5 22-198)
T1 chain: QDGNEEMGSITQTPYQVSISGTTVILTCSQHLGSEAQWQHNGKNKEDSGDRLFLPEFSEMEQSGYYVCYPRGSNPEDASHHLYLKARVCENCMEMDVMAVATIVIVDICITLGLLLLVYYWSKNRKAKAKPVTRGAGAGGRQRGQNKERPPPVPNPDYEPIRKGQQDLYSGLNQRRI


What was measured:
cynomolgus CD3 [1] = target: T1, cynomolgus CD3; experiment: FACS binding, HSC-F cells
human CD3 [2] = target: T2, human CD3 (UniProt P07766 22-207); experiment: FACS binding, Jurkat cells
cynomolgus CD3 [3] = target: T1, cynomolgus CD3; experiment: FACS binding, HSC-F cells; Fig 2A
cynomolgus CD3 [4] = target: T1, cynomolgus CD3; experiment: FACS binding, HSC-F cells
human CD3 [5] = target: T2, human CD3; experiment: FACS binding, Jurkat cells; remark: listed apart in the source
human CD3 [6] = target: T2, human CD3; experiment: FACS binding, Jurkat cells; Fig 1B
human CD3 [7] = target: T2, human CD3; experiment: FACS binding, Jurkat cells; Fig 1A
cynomolgus CD3 [8] = target: T1, cynomolgus CD3; experiment: FACS binding, HSC-F cells; Fig 2B

T2 sequence (P07766 22-207): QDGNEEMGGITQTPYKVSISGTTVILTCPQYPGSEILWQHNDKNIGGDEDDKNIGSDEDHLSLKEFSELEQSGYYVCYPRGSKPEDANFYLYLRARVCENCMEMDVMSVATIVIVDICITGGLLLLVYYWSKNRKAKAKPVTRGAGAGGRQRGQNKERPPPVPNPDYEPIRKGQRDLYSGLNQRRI

| EC50 (cynomolgus CD3 [3]) | EC50 (cynomolgus CD3 [4]) | EC50 (human CD3 [5]) | EC50 (human CD3 [7]) | Binder | further results |
| --- | --- | --- | --- | --- | --- |
| 0.37 µg/mL |  |  |  | IgG1-huCD3-H1L1 (antibody, V domains shown) VH: EVKLVESGGGLVQPGGSLRLSCAASGFTFNTYAMNWVRQAPGKGLEWVARIRSKYNNYATYYADSVKDRFTISRDDSKSSLYLQMNNLKTEDTAMYYCVRHGNFGNSYVSWFAYWGQGTLVTVSS VL: not shown |  |
|  | 0.03 µg/mL | 0.11 µg/mL |  | IgG1-huCD3-H1L3-LFLEDA (antibody, V domains shown) VH: EVKLVESGGGLVQPGGSLRLSCAASGFTFNTYAMNWVRQAPGKGLEWVARIRSKYNNYATYYADSVKDRFTISRDDSKSSLYLQMNNLKTEDTAMYYCVRHGNFGNSYVSWFAYWGQGTLVTVSS VL: QAVVTQEPSFSVSPGGTVTLTCRSSTGAVTTSNYANWVQQTPGQAFRGLIGGTNKRAPGVPARFSGSILGNKAALTITGAQADDESDYYCALWYSNLWVFGGGTKLTVL |  |
|  | 0.03 µg/mL |  |  | IgG1-huCD3-H1L1-LFLEDA (antibody, V domains shown) VH: EVKLVESGGGLVQPGGSLRLSCAASGFTFNTYAMNWVRQAPGKGLEWVARIRSKYNNYATYYADSVKDRFTISRDDSKSSLYLQMNNLKTEDTAMYYCVRHGNFGNSYVSWFAYWGQGTLVTVSS VL: not shown |  |
| 0.31 µg/mL |  |  | 0.08 µg/mL | IgG1-huCD3-H1L2 (antibody, V domains shown) VH: EVKLVESGGGLVQPGGSLRLSCAASGFTFNTYAMNWVRQAPGKGLEWVARIRSKYNNYATYYADSVKDRFTISRDDSKSSLYLQMNNLKTEDTAMYYCVRHGNFGNSYVSWFAYWGQGTLVTVSS VL: QAVVTQEPSFSVSPGGTVTLTCRSSTGAVTTSNYANWVQQTPGQAFRGLIGGTNKRAPGVPARFSGSILGNKAALTITGAQADDESIYFCALWYSNLWVFGGGTKLTVL |  |
|  | 0.03 µg/mL | 0.08 µg/mL |  | IgG1-huCD3-H3L3-LFLEDA (antibody, V domains shown) VH: EVKLVESGGGLVKPGRSLRLSCAASGFTFNTYAMNWVRQAPGKGLEWVARIRSKYNNYATYYADSVKDRFTISRDDSKSILYLQMNSLKTEDTAMYYCVRHGNFGNSYVSWFAYWGQGTLVTVSS VL: QAVVTQEPSFSVSPGGTVTLTCRSSTGAVTTSNYANWVQQTPGQAFRGLIGGTNKRAPGVPARFSGSILGNKAALTITGAQADDESDYYCALWYSNLWVFGGGTKLTVL |  |
| 0.26 µg/mL |  |  | 0.05 µg/mL | IgG1-huCD3-H4L1 (antibody, V domains shown) VH: EVKLVESGGGLVKPGRSLRLSCAASGFTFNTYAMNWVRQAPGKGLEWVARIRSKYNNYATYYADSVKDRFTISRDDSKSILYLQMNSLKTEDTAMYYCVRHGNFGNSYVSWFAYWGQGTMVTVSS VL: not shown |  |
| 0.19 µg/mL | 0.04 µg/mL | 0.1 µg/mL | 0.04 µg/mL | IgG1-huCD3-H3L1-LFLEDA (antibody, V domains shown) VH: EVKLVESGGGLVKPGRSLRLSCAASGFTFNTYAMNWVRQAPGKGLEWVARIRSKYNNYATYYADSVKDRFTISRDDSKSILYLQMNSLKTEDTAMYYCVRHGNFGNSYVSWFAYWGQGTLVTVSS VL: not shown | EC50 (cynomolgus CD3 [8]): 0.3 µg/mL; EC50 (human CD3 [6]): 0.04 µg/mL |

More lines, now with the values behind:

| Binder | EC50 (cynomolgus CD3 [3]) | EC50 (cynomolgus CD3 [4]) | EC50 (human CD3 [5]) | EC50 (human CD3 [7]) | further results |
| --- | --- | --- | --- | --- | --- |
| bsIgG1-huCD3-H3L3×HER2-LFLEDA (bispecific antibody, V domains shown) VH 1: EVKLVESGGGLVKPGRSLRLSCAASGFTFNTYAMNWVRQAPGKGLEWVARIRSKYNNYATYYADSVKDRFTISRDDSKSILYLQMNSLKTEDTAMYYCVRHGNFGNSYVSWFAYWGQGTLVTVSS VL 1: QAVVTQEPSFSVSPGGTVTLTCRSSTGAVTTSNYANWVQQTPGQAFRGLIGGTNKRAPGVPARFSGSILGNKAALTITGAQADDESDYYCALWYSNLWVFGGGTKLTVL VH 2: QVQLVQSGAEVKKPGASVKVSCKASGYTFTNYGISWVRQAPGQGLEWMGWLSAYSGNTIYAQKLQGRVTMTTDTSTTTAYMELRSLRSDDTAVYYCARDRIVVRPDYFDYWGQGTLVTVSS VL 2: EIVLTQSPATLSLSPGERATLSCRASQSVSSYLAWYQQKPGQAPRLLIYDASNRATGIPARFSGSGSGTDFTLTISSLEPEDFAVYYCQQRSNWPRTFGQGTKVEIK |  |  |  |  | EC50 (cynomolgus CD3 [1]): 0.26 µg/mL; EC50 (human CD3 [2]): 0.74 µg/mL |
| IgG1-huCD3-H4L3-LFLEDA (antibody, V domains shown) VH: EVKLVESGGGLVKPGRSLRLSCAASGFTFNTYAMNWVRQAPGKGLEWVARIRSKYNNYATYYADSVKDRFTISRDDSKSILYLQMNSLKTEDTAMYYCVRHGNFGNSYVSWFAYWGQGTMVTVSS VL: QAVVTQEPSFSVSPGGTVTLTCRSSTGAVTTSNYANWVQQTPGQAFRGLIGGTNKRAPGVPARFSGSILGNKAALTITGAQADDESDYYCALWYSNLWVFGGGTKLTVL |  | 0.02 µg/mL | 0.08 µg/mL |  |  |
| bsIgG1 CD3×HER2 (bispecific antibody, V domains shown) VH 1: EVKLLESGGGLVQPKGSLKLSCAASGFTFNTYAMNWVRQAPGKGLEWVARIRSKYNNYATYYADSVKDRFTISRDDSQSILYLQMNNLKTEDTAMYYCVRHGNFGNSYVSWFAYWGQGTLVTVSA VL 1: QAVVTQESALTTSPGETVTLTCRSSTGAVTTSNYANWVQEKPDHLFTGLIGGTNKRAPGVPARFSGSLIGDKAALTITGAQTEDEAIYFCALWYSNLWVFGGGTKLTVL VH 2: QVQLVQSGAEVKKPGASVKVSCKASGYTFTNYGISWVRQAPGQGLEWMGWLSAYSGNTIYAQKLQGRVTMTTDTSTTTAYMELRSLRSDDTAVYYCARDRIVVRPDYFDYWGQGTLVTVSS VL 2: EIVLTQSPATLSLSPGERATLSCRASQSVSSYLAWYQQKPGQAPRLLIYDASNRATGIPARFSGSGSGTDFTLTISSLEPEDFAVYYCQQRSNWPRTFGQGTKVEIK |  |  |  |  | EC50 (human CD3 [6]): 0.68 µg/mL |
| IgG1-huCD3-H1L3 (antibody, V domains shown) VH: EVKLVESGGGLVQPGGSLRLSCAASGFTFNTYAMNWVRQAPGKGLEWVARIRSKYNNYATYYADSVKDRFTISRDDSKSSLYLQMNNLKTEDTAMYYCVRHGNFGNSYVSWFAYWGQGTLVTVSS VL: QAVVTQEPSFSVSPGGTVTLTCRSSTGAVTTSNYANWVQQTPGQAFRGLIGGTNKRAPGVPARFSGSILGNKAALTITGAQADDESDYYCALWYSNLWVFGGGTKLTVL | 0.28 µg/mL |  |  | 0.06 µg/mL |  |
| bsIgG1-huCD3-H4L1×HER2-LFLEDA (bispecific antibody, V domains shown) VH 1: EVKLVESGGGLVKPGRSLRLSCAASGFTFNTYAMNWVRQAPGKGLEWVARIRSKYNNYATYYADSVKDRFTISRDDSKSILYLQMNSLKTEDTAMYYCVRHGNFGNSYVSWFAYWGQGTMVTVSS VL 1: not shown VH 2: QVQLVQSGAEVKKPGASVKVSCKASGYTFTNYGISWVRQAPGQGLEWMGWLSAYSGNTIYAQKLQGRVTMTTDTSTTTAYMELRSLRSDDTAVYYCARDRIVVRPDYFDYWGQGTLVTVSS VL 2: EIVLTQSPATLSLSPGERATLSCRASQSVSSYLAWYQQKPGQAPRLLIYDASNRATGIPARFSGSGSGTDFTLTISSLEPEDFAVYYCQQRSNWPRTFGQGTKVEIK |  |  |  |  | EC50 (cynomolgus CD3 [1]): 0.36 µg/mL; EC50 (human CD3 [2]): 0.62 µg/mL |
| IgG1-huCD3-H4L1-LFLEDA (antibody, V domains shown) VH: EVKLVESGGGLVKPGRSLRLSCAASGFTFNTYAMNWVRQAPGKGLEWVARIRSKYNNYATYYADSVKDRFTISRDDSKSILYLQMNSLKTEDTAMYYCVRHGNFGNSYVSWFAYWGQGTMVTVSS VL: not shown |  | 0.03 µg/mL | 0.06 µg/mL |  |  |
| bsIgG1-huCD3-H1L3×HER2-LFLEDA (bispecific antibody, V domains shown) VH 1: EVKLVESGGGLVQPGGSLRLSCAASGFTFNTYAMNWVRQAPGKGLEWVARIRSKYNNYATYYADSVKDRFTISRDDSKSSLYLQMNNLKTEDTAMYYCVRHGNFGNSYVSWFAYWGQGTLVTVSS VL 1: QAVVTQEPSFSVSPGGTVTLTCRSSTGAVTTSNYANWVQQTPGQAFRGLIGGTNKRAPGVPARFSGSILGNKAALTITGAQADDESDYYCALWYSNLWVFGGGTKLTVL VH 2: QVQLVQSGAEVKKPGASVKVSCKASGYTFTNYGISWVRQAPGQGLEWMGWLSAYSGNTIYAQKLQGRVTMTTDTSTTTAYMELRSLRSDDTAVYYCARDRIVVRPDYFDYWGQGTLVTVSS VL 2: EIVLTQSPATLSLSPGERATLSCRASQSVSSYLAWYQQKPGQAPRLLIYDASNRATGIPARFSGSGSGTDFTLTISSLEPEDFAVYYCQQRSNWPRTFGQGTKVEIK |  |  |  |  | EC50 (cynomolgus CD3 [1]): 0.25 µg/mL; EC50 (human CD3 [2]): 0.58 µg/mL |
| bsIgG1-huCD3-H1L1×HER2-LFLEDA (bispecific antibody, V domains shown) VH 1: EVKLVESGGGLVQPGGSLRLSCAASGFTFNTYAMNWVRQAPGKGLEWVARIRSKYNNYATYYADSVKDRFTISRDDSKSSLYLQMNNLKTEDTAMYYCVRHGNFGNSYVSWFAYWGQGTLVTVSS VL 1: not shown VH 2: QVQLVQSGAEVKKPGASVKVSCKASGYTFTNYGISWVRQAPGQGLEWMGWLSAYSGNTIYAQKLQGRVTMTTDTSTTTAYMELRSLRSDDTAVYYCARDRIVVRPDYFDYWGQGTLVTVSS VL 2: EIVLTQSPATLSLSPGERATLSCRASQSVSSYLAWYQQKPGQAPRLLIYDASNRATGIPARFSGSGSGTDFTLTISSLEPEDFAVYYCQQRSNWPRTFGQGTKVEIK |  |  |  |  | EC50 (cynomolgus CD3 [1]): 0.32 µg/mL |
| IgG1-huCD3-H3L3 (antibody, V domains shown) VH: EVKLVESGGGLVKPGRSLRLSCAASGFTFNTYAMNWVRQAPGKGLEWVARIRSKYNNYATYYADSVKDRFTISRDDSKSILYLQMNSLKTEDTAMYYCVRHGNFGNSYVSWFAYWGQGTLVTVSS VL: QAVVTQEPSFSVSPGGTVTLTCRSSTGAVTTSNYANWVQQTPGQAFRGLIGGTNKRAPGVPARFSGSILGNKAALTITGAQADDESDYYCALWYSNLWVFGGGTKLTVL | 0.11 µg/mL |  |  | 0.02 µg/mL |  |
